Assay results taken from publication PMC8471065.

Assays:
[1] = target: T1, thrombin (alpha-thrombin not specified) (Homo sapiens (human plasma), UniProt P00734;P00734 328-363;364-622); assay: EMSA; K+; only the lower (folded) band bound; 1 uM Cy5-aptamer (10 uL) annealed in 10 mM sodium cacodylate pH 7.2, 100 mM KCl in D2O; 24 pmol thrombin (2.4 eq), 30 min at 25 C; 12% native PAGE, 1x TBE + 10
[2] = target: T1, thrombin (alpha-thrombin not specified); assay: EMSA; K+; band at start of lane (multi-species complex), no clotting inhibition; 1 uM Cy5-aptamer (10 uL) annealed in 10 mM sodium cacodylate pH 7.2, 100 mM KCl in D2O; 24 pmol thrombin (2.4 eq), 30 min at 25 C; 12% native PAGE, 1x TBE + 10

Row | Binder | binding result [1] | binding result [2]
1 | GGTTGGTGTGGTTGG (structured_DNA, 3'-propargyl linker) [TBA-ppg-Cy5] | binds | 
2 | GGGTTGGGTGTGGGTTGGG (structured_DNA, 3'-propargyl linker) [3Q-ppg-Cy5 (Cy5-3Q)] |  | binds
